The record followed here is paper PMC4150794.

In data set [1] the test system is RBPMS2-Nter (Homo sapiens). As to the kind of experiment: EMSA. As to conditions: theoretical Kd, cooperative fit; 100 nM RNA; second complex at 5 uM; EMSA: 20 mM Tris pH 7.4, 100 mM KCl, 1 mM EDTA, 10 ug/ml BSA, 1 mM DTT, 1 U/ul RNaseOUT, 2% glycerol, 20 C 30 min, 10% gel in 1X TBE at 4 C; anisotropy: 20 mM …. A general note: Mobility shift assays separate free from complexed probe on a gel.

The next data set concerns Q6ZRY4. The data set can be described thus: SEC-MALS; Superdex 75 10/300, 20 mM Tris-HCl pH 8, 300 mM NaCl; loaded at 2 mg/ml (RBPMS2-Nter) or 4 mg/ml (RBPMS2-Nter-L49E); monomer to dimer. (In general: Size exclusion chromatography separates by hydrodynamic size, large species first.)

For the substance 161-nt NOGGIN RNA, in data set [1], the Kd is 2250 nM.
With “RBPMS2-Nter-L49E (human RBPMS2 residues 27-117 with L49E)”, in the data set on Q6ZRY4, the “percent of the protein in the monomer peak” value is on record as “The majority species (92.4%) has a Mw of 10.6 kDa, as would be expected for the monomer”.

One may read the Kd as a measure of binding affinity in units of concentration. Read a high Kd as lower affinity.
